# Laboratory results reported in publication PMC9949351, “Chromatin localization of nucleophosmin organizes ribosome biogenesis” (Molecular cell, 2022).
# B1: Fkbp41 (natural protein, S. pombe, UniProt Q10175 1-362, looked up)
# chain: MSKEETLYSVKVDQERVPLFDEDFYKGFRSELSVRFTMAALDPRAKSNDAVTVNVITRLEHPEEDGEESDEELFQEEKFTLCTLKKGSVYQQPIDIIFSPGEEVFFERVGGDIPVYLSGTCIITNIPEEEDSSDLENDFLYGADEFSSDEEEMDDISVTSSEEEEEENGARIEELNSDEEDAEQAEEEILEKPVPKDEVAEKHSKDKLKKEEKEKKTAVDVSDSVNGKKRKTEPAGEGEQTEKKSKSTKTYPKQVLEGNVTVQDKVKGDGPAAKRKKRVSMRYIGRLTNGKVFDKNITGKPFTFNLGLEEVIKGWDVGIVGMQVGGERTIHIPAAMAYGSKRLPGIPANSDLVFDVKLLAVN
# notes: Fkbp41, S. pombe, SPAC27F1.06c; cloned into a pETDuet vector behind 6xHis-SUMO and an HRV-3C site; also called nucleophosmin-like protein Fkbp41; SPAC27F1.06c; source: E. coli Rosetta (DE3), purified (Ni Sepharose, tag removed, Q ion exchange, at times SEC); not shown: 6xHis, N-terminal, cleaved; SUMO, N-terminal, cleaved
# Experiments:
# [1] = target: the molecule itself; experiment: mass photometry + SEC; purified Fkbp39 and Fkbp41, oligomeric state; SEC on Superdex 200 Increase 10/300 GL
# Fkbp41 = target: B1; experiment: pull-down; 'in vitro co-immunoprecipitation': 12 μg each of 6xHis-SUMO-Fkbp39 and Fkbp41, 45 min at 4 °C in 30 mM HEPES-Na pH 7.5-8, 150 mM NaCl, 20 mM imidazole; Ni Sepharose resin, imidazole elution, SDS-PAGE; conditions: both partners purified
binding result (Fkbp41),Binder,stoichiometry N [1]
,B1,2
,"Fkbp39 (natural protein, S. pombe, UniProt O74191 1-361, looked up, Fkbp39, S. pombe, SPBC1347.02; cloned into a pETDuet vector behind 6xHis-SUMO and an HRV-3C site; also called nucleophosmin-like protein Fkbp39; SPBC1347.02; source: E. coli Rosetta, purified (Ni Sepharose, tag removed, SP ion exchange, at times SEC); not shown: 6xHis, N-terminal, cleaved; SUMO, N-terminal, cleaved) MSLPIAVYSLSVKGKDVPAVEESTDASIHLTMASIDAGEKSNKPTTLLVKVRPRIPVEDEDDEELDEQMQELLEESQREFVLCTLKPGSLYQQPLNLTITPGDEVFFSASGDATIHLSGNFLVDEEDEEEEESDEDYDLSPTEEDLVETVSGDEESEEESESEDNSASEEDELDSAPAKKAQVKKKRTKDESEQEEAASPKKNNTKKQKVEGTPVKEKKVAFAEKLEQGPTGPAAKKEKQQASSNAPSSPKTRTLKGGVVVTDVKTGSGASATNGKKVEMRYIGKLENGKVFDKNTKGKPFAFILGRGEVIRGWDVGVAGMQEGGERKITIPAPMAYGNQSIPGIPKNSTLVFEVKLVRVH",5
binds,"6xHis-SUMO-Fkbp39 (natural protein, S. pombe, UniProt O74191 1-361, looked up, Fkbp39, S. pombe, SPBC1347.02; pETDuet construct with 6xHis-SUMO and an HRV-3C site, tag not removed; source: E. coli Rosetta (Fkbp39 constructs), purified; used as 6xHis-SUMO-Fkbp39; not shown: 6xHis, N-terminal, kept; SUMO, N-terminal, kept) MSLPIAVYSLSVKGKDVPAVEESTDASIHLTMASIDAGEKSNKPTTLLVKVRPRIPVEDEDDEELDEQMQELLEESQREFVLCTLKPGSLYQQPLNLTITPGDEVFFSASGDATIHLSGNFLVDEEDEEEEESDEDYDLSPTEEDLVETVSGDEESEEESESEDNSASEEDELDSAPAKKAQVKKKRTKDESEQEEAASPKKNNTKKQKVEGTPVKEKKVAFAEKLEQGPTGPAAKKEKQQASSNAPSSPKTRTLKGGVVVTDVKTGSGASATNGKKVEMRYIGKLENGKVFDKNTKGKPFAFILGRGEVIRGWDVGVAGMQEGGERKITIPAPMAYGNQSIPGIPKNSTLVFEVKLVRVH",
